{"source": "paper PMC8134462", "about": "“Cross-reactive serum and memory B-cell responses to spike protein in SARS-CoV-2 and endemic coronavirus infection” (Nature Communications, 2021)", "binders": {"B1": {"name": "mAb CC9.1 (antibody, V domains shown)", "VH": "EVQLVESGGGLVQPGRSLRLSCVAPGFTLGGYGMHWVRQAPGKGLEWVGLISYDGSVQKYGSSVKGRFTISKDNSKNTLYLEMNSLRADDTAVYFCVKGASLGDNWGQGTLVTVSS", "VL": "EIVMTQSPLSLPVTLGQPASISCRSSQSLVYSDGDTYMSWFHQRPGQSPRRLIYKVSNRDSGVPDRFSGSGSGTDFTLKISRVEAEDVGVYYCMQGTHWPYTFGPGTKVEIK"}, "B2": {"name": "Fab CC9.2 (Fab, V domains shown)", "VH": "B1 VH", "VL": "B1 VL with S61F", "notes": "also called CC9.2 Fab"}, "B3": {"name": "mAb CC9.2 (IgG) (antibody, V domains shown)", "VH": "B1 VH", "VL": "B1 VL with S61F"}, "B4": {"name": "second SARS-CoV-2/HCoV-HKU1 cross-reactive mAb from the CC40 donor (its name is not printed in the text) (antibody, V domains shown)", "VH": "EVQLVESGGGVVQPGRSLRLSCVASGFTFSNYGMHWVRQAPGKGLEWVAVMSYDGSVTYYGDSVRGRFTISRDNSKNTLYLQMSSLRTDDTGVYYCAKGQPLDDIWGLGTLVTVSS", "VL": "EIVMTQSPLSLPVSLGQSASISCRSSQSLVHTDGITYLSWFQQRPGQSPRRLLYKVSNRDSGVPDRFSGSGSGTDFTLKISRVEAEDVGVYYCLQGTYWPWTFGQGTKVEIK", "notes": "also called one of the two cross-reactive mAbs from the CC40 donor"}}, "key": {"[1]": {"biological_target": "T1, SARS-CoV-2 N-terminal domain-NTD (residue 1-290) (SARS-CoV-2, Wuhan-Hu-1 (MN908947), UniProt P0DTC2)", "T1 construct": "source: FreeStyle293F, transfected, purified (Ni-NTA, SEC)", "assay": "BLI", "conditions": "both partners purified"}, "[2]": {"biological_target": "T2, SARS-CoV-2 receptor-binding domain-RBD (residue 320-527) (SARS-CoV-2, Wuhan-Hu-1 (MN908947), UniProt P0DTC2)", "T2 construct": "source: FreeStyle293F, transfected, purified (Ni-NTA, SEC)", "assay": "BLI", "conditions": "both partners purified"}, "[3]": {"biological_target": "T3, SARS-CoV-2 RBD-SD1 (residue 320-591) (SARS-CoV-2, Wuhan-Hu-1 (MN908947), UniProt P0DTC2)", "T3 construct": "source: FreeStyle293F, transfected, purified (Ni-NTA, SEC)", "assay": "BLI", "conditions": "both partners purified"}, "[4]": {"biological_target": "T4, SARS-CoV-2 RBD-SD1-2 (residue 320-681) (SARS-CoV-2, Wuhan-Hu-1 (MN908947), UniProt P0DTC2)", "T4 construct": "source: FreeStyle293F, transfected, purified (Ni-NTA, SEC)", "assay": "BLI", "conditions": "both partners purified"}, "[5]": {"biological_target": "T5, SARS-CoV-2 spike protein, full-length, expressed on the HEK293T cell surface (SARS-CoV-2, Wuhan-Hu-1 (MN908947), UniProt P0DTC2)", "T5 construct": "source: HEK293T, transfected (phCMV3), on the cell surface", "assay": "flow cytometry on cells", "conditions": "one partner purified"}, "[6]": {"biological_target": "T6, HCoV-HKU1 spike protein, full-length, expressed on the HEK293T cell surface (HCoV-HKU1, isolate N1 (YP_173238.1), UniProt Q5MQD0)", "T6 construct": "also called HKU1-CoV S; source: HEK293T, transfected (phCMV3), on the cell surface", "assay": "flow cytometry on cells", "conditions": "one partner purified"}, "[7]": {"biological_target": "T7, HCoV-OC43 spike protein, full-length, expressed on the HEK293T cell surface (HCoV-OC43)", "T7 construct": "source: HEK293T, transfected (phCMV3), on the cell surface", "assay": "flow cytometry on cells", "conditions": "one partner purified"}, "[8]": {"biological_target": "T8, HCoV-NL63 spike protein, full-length, expressed on the HEK293T cell surface (HCoV-NL63 (YP_003767.1), UniProt Q6Q1S2)", "T8 construct": "source: HEK293T, transfected (phCMV3), on the cell surface", "assay": "flow cytometry on cells", "conditions": "one partner purified"}, "[9]": {"biological_target": "T9, HCoV-229E spike protein, full-length, expressed on the HEK293T cell surface (HCoV-229E (NP_073551.1), UniProt P15423)", "T9 construct": "source: HEK293T, transfected (phCMV3), on the cell surface", "assay": "flow cytometry on cells", "conditions": "one partner purified"}, "[10]": {"biological_target": "T10, HCoV-HKU1 soluble S ectodomain protein (residue 1-1295), prefusion-stabilized, with T4 fibritin trimerization … (HCoV-HKU1, isolate N1 (YP_173238.1), UniProt Q5MQD0, A1071/L1072 replaced by proline residues)", "T10 construct": "also called HCoV-HKU1 S-protein; HKU1-CoV S protein; source: FreeStyle293F, transfected, purified (Ni-NTA or GNL column, SEC)", "assay": "BLI", "conditions": "both partners purified"}}, "note": "Where a chain is given by its changes, count along the chain named.", "data": [{"binder": "B1", "values": [{"measurement": "binding result", "setting": "[1]", "value": "no binding"}, {"measurement": "binding result", "setting": "[2]", "value": "no binding"}, {"measurement": "binding result", "setting": "[3]", "value": "no binding"}, {"measurement": "binding result", "setting": "[4]", "value": "no binding"}, {"measurement": "binding result", "setting": "[5]", "value": "binds"}, {"measurement": "binding result", "setting": "[6]", "value": "binds"}, {"measurement": "binding result", "setting": "[7]", "value": "binds"}, {"measurement": "binding result", "setting": "[8]", "value": "no binding"}, {"measurement": "binding result", "setting": "[9]", "value": "no binding"}]}, {"binder": "B2", "values": [{"measurement": "binding result", "setting": "[10]", "value": "binds"}]}, {"binder": "B3", "values": [{"measurement": "binding result", "setting": "[1]", "value": "no binding"}, {"measurement": "binding result", "setting": "[2]", "value": "no binding"}, {"measurement": "binding result", "setting": "[3]", "value": "no binding"}, {"measurement": "binding result", "setting": "[4]", "value": "no binding"}, {"measurement": "binding result", "setting": "[10]", "value": "binds"}, {"measurement": "binding result", "setting": "[5]", "value": "binds"}, {"measurement": "binding result", "setting": "[6]", "value": "binds"}, {"measurement": "binding result", "setting": "[7]", "value": "binds"}, {"measurement": "binding result", "setting": "[8]", "value": "no binding"}, {"measurement": "binding result", "setting": "[9]", "value": "no binding"}]}, {"binder": "B4", "values": [{"measurement": "binding result", "setting": "[1]", "value": "no binding"}, {"measurement": "binding result", "setting": "[2]", "value": "no binding"}, {"measurement": "binding result", "setting": "[3]", "value": "no binding"}, {"measurement": "binding result", "setting": "[4]", "value": "no binding"}, {"measurement": "binding result", "setting": "[5]", "value": "binds"}, {"measurement": "binding result", "setting": "[6]", "value": "binds"}, {"measurement": "binding result", "setting": "[7]", "value": "binds"}, {"measurement": "binding result", "setting": "[8]", "value": "no binding"}, {"measurement": "binding result", "setting": "[9]", "value": "no binding"}]}]}
